Among the data in a protein production outcome set (Wang et al. 2014) are protein production values, retold here.

The data set can be described thus: label from the status in PepcDB records.
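Further: failed if final PepcDB status was selected cloned or expressed and not failed if soluble or beyond.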

Regarding “MSNACLASSLLSVCFRLSTERSAMSTSRLRPRCLSVLLAALLLWGGLPTASAQPQRAVRADTLYTMTGDPIENGVVLIENETIAAVGPTSEVDVPASAEVHKASVVTPGLIDPRGTVGLSGIYNVPADQDQLDTSEPMQPALRALDAYNPREQLVSFVQQLGFTTVHTGHAPGALISGQTATFSTAGTTVEASLRDSITTVAFTLGPDAQARFESPGTRAKGVAMLRQALHDAQAAMDGGEPEGGDLGQDVLQDVLRGEVPALITAHRAHDIQTALRLQEEFGFDLILDGAAEAYLMTEEIAEADVPVILHPTMARPSGTTQNAAFTTAGVLHDAGVPVAIQTGWEPYVPKTRIALYEAAIAMAHGLPREAALASITREAAEILGLDNVGTVAPGQRADLALFDGDPFEYTTHVCTVLSGGEVVSDECK”, the protein production entry is “failed”.
The same measure for “MSNEDNVRQETKNKKEKLRLSFPETRFMKFMGGKDLLFALIMLILIGIAIFIFDQVSYIFKPFIIVFNTIVAPIIVSIILYYLFNPLVNLMERYNISRLWGVIILFLVIIGVIALAINLLIPVIGTQFKSFGNNFPHYVDKVNQFIDNLTRNSLISNFYGQIQEQLDALANKLPSMVSDYFNGFGSKVKNFAEAIVNVGVVIATTPFVLFFMLKDSHHFKEYSTKLMPPKFRKDYHDLLDKMSVQVGSYIQGQIIVSFCIGILLFIGYSIIGLDYSLILASIAAVTSVVPYLGPTIAISPAIIIALITSPIMLLKLIIVWTAVQFIEGHFISPNIMGKTLKIHPLTIIFILLSAGNLLGVVGVILGIPAYAILKVLVSHLYSMYKRRYNKYYGDDAGEYEITNDEQIR”: “failed”; for “MSNFFSVRIETLGCRLNQVESEALAVRFAECGFDVFSKEAETSILPVKLCIVNTCTVTGKAEQKARRLIRLLLKEHEESVILVTGCYAELEADSIEKINKRIIAFSGKKKDELDGLPQFLKDSCLKNKDLKEDTVNLKKNLLIFRNEIYAKEDQQDKSFLLKETERRKSMFKLSSPVFVFHSRASLKIQDGCNNACAYCRIRLARGTSVSLPAEEAVRRIVQIEKNGAAEVVLSGVNLSQYRDETYGGFANLLAKLLENTKKIRLRISSMYPECVDDGILEIVANKRICPHFHLSIQSGSDKILKAMNRPYREADIRMAINNLRKAKDNPFIGCDIITGFPSETEEDFLQTFKMCEDLKIPGIHVFPFSARPGTKAFSMRPKVPEREAGRRASLLSELSGKNYQSYLASCNGKLFFGVIEKPQNNEDLRIVTENYLSLPLVVNKKAENYKGGEGLFVVIKDGNAYLAD”: “failed”; for “MSNFSEGEIFIANIEKKSLECRENDEIVVLKICELCNIIYPIFNKIFGNGFVGDTLKKDLKNSSSQVQRAIEKFPEETKYVSMLYSYNINKYENMEKLKRDLDNGIISFLWMKRTLEFIITFLEKCYITCSETKLSICAQEAYNEVLKKYHGFITSKIVKLCLKLSPTKDILTKKLGFQTHQQASTVLQKCLSITKPLVRDISVTIEKFNCDFEEKI”: “failed”.
For “MSNKIITLEINLEPSDNHRLASLCGPFDDNIKHLERRLGVEINYRGNFFTIVGQPHTAAAALDIIKTLYVETAPVRGQITDIEPEQIHLAIKESGVLEQHSESSIAHGKEVFVKTKKGVIKPRTPNQAQYLMNMVTHDITFGVGPAGTGKTYLAVAAAVDALERQEIRRILLTRPAVEAGEKLGFLPGDLSQKVDPYLRPLYDALFEMLGFERVEKLIERNVIEVAPLAYMRGRTLNDAFIILDESQNTTVEQMKMFLTRIGFNSRAVITGDVTQIDLPRGAKSGLRHAIEVLNEVDEISFNFFQADDVVRHPVVARIVNAYEKWEAQDQKERKEYEQRRREERENKLLEMQRAEMTLSHNNESNPS”, the protein production result is on record as “failed”.
Consider “MSNMQLDTLRRIVQEINSSVSLHDSLDIMVNQVADAMKVDVCSIYLLDERNQRYLLMASKGLNPESVGHVSLQLSEGLVGLVGQREEIVNLENASKHERFAYLPETGEEIYNSFLGVPVMYRRKVMGVLVVQNKQPQDFSEAAESFLVTLCAQLSGVIAHAHAVGNID”, for which the protein production entry is reported as “not failed”.
In the case of “MSNNGSSPLVLWYNQLGMKDVDRVGGKNASLGEMITNLSGMGVSVPNGFATTADAFNQFLDQSGVNQRIYELLDKTDIDDVTQLAKAGAQIRQWIIDTPFQPELENAIREAYAQLSADDENASFAVRSSATAEDMPDASFAGQQETFLNVQGFDAVLVAVKHVFASLFNDRAISYRVHQGYDHRGVALSAGVQRMVRSDLASSGVMFSIDTESGFDQVVFITSAWGLGEMVVQGAVNPDEFYVHKPTLAANRPAIVRRTMGSKKIRMVYAPTQEHGKQVKIEDVPQEQRDIFSLTNEEVQELAKQAVQIEKHYGHPMDIEWAKDGHTGKLFIVQARPETVRSRGQVMERYTLHSQGKIIAEGRAIGHRIGAGPVKVIHDISEMNRIEPGDVLVTDMTDPDWEPIMKKASAIVTNRGGRTCHAAIIARELGIPAVVGCGDATERMKDGENVTVSCAEGDTGYVYAELLEFSVKSSSVETMPDLPLKVMMNVGNPDRAFDFACLPNEGVGLARLEFIINRMIGVHPRALLEFDDQEPQLQNEIREMMKGFDSPREFYVGRLTEGIATLGAAFYPKRVIVRLSDFKSNEYANLVGGERYEPDEENPMLGFRGAGRYVSDSFRDCFALECEAVKRVRNDMGLTNVEIMIPFVRTVDQAKAVVEELARQGLKRGENGLKIIMMCEIPSNALLAEQFLEYFDGFSIGSNDMTQLALGLDRDSGVVSELFDERNDAVKALLSMAIRAAKKQGKYVGICGQGPSDHEDFAAWLMEEGIDSLSLNPDTVVQTWLSLAELKK” it was “failed”; in that of “MSNNNKYFTITKKQYKKMRRNKIELLFNVKVLKKKNGRQKFKILHEVENKPKIPIKIIEDQPESPKPLKPPKPPKPPKGPDNPEEPDSPEEPKETDQPGGPDNPNAGNKKMPTPEEYVTRKEFNEFKDSNNQRLTKIENKVDKLEVKVDKLAEIVQTQGEEIKELKVEQKAQSETLQLILKTLQKMNDRLDRMETRLDKIDSPKLEHHHHHH”, “not failed”; in that of “MSNNQQMMLNRIKVVLAEKQRTNRWLAEQMGKSENTISRWCSNKSQPSLDMLVKVAELLNVDPRQLINGKIKI”, “not failed”.
The same measure for “MSNPNEDSPMILQRIFALALLAMCAALAVMAWPYQAAFSYEPVGPRAYPLLVLGLMGLGLLYLVFRPTPIVRKDDEPELDRETLIKITACVGLLIVFAATFEALGFILSAILVGLPMARLYGGRWLQSAIVVAGMSIFLYWLFDRVMDVPLPLGLLSVLEN”: “failed”.
For “MSNQYDPSQPVVFTDFSPKEGGMRTRLYIEGSNFGNDPTKIHITIGGEKTKTIGADGKKIYCMVPSKAFDGIINVRVDGPDGKPIAEHTFEEEFKYTPATIVGTLLRKVDEDNNSAFQEGSFDEGASIPSNDCMVFDPKYKDGDNRLLFSSNHSDGLHLIDLTERTVKRLFPRTGYSTMYSFTFSADGDTLLFTDDHGQDNTTRANIYYSLRRENFRRIRPYNYGRTAYSLVYMDDGTIFYTTWWEGKVYKMIRNGAIPNIDENAEVAFSLSQISAVGGSHTILFRHPSNKFMYMLSDNFGAVFRADYDPVAKTFGNPSIIAGNMNDKSFKEGTGGSARFNKPQFGVFVKNEKYGEGIGPDNDQYDFYFCDRENHCIWKLDPHGVASLAAGRSNENADGKIWGYVDGNPLHEARFNQPAGLAYDPDTDMFYIGDIDNKGIRYMTTELEHHHHHH”, the protein production result is “failed”.
As for “MSNSHPLRPFTAVGEIDHVHILSEHIGALLIGEEYGDVTFVVEKKRFPAHRVILAARCQYFRALLYGGMRESQPEAEIPLQDTTAEAFTMLLRYIYTGRATLTDEKEEVLLDFLSLAHKYGFPELEDSTSEYLCTILNIQNVCMTFDVASLYSLPKLTCMCCMFMDRNAQEVLASDGFLSLSKTALLNIVLRDSFAAPEKDIFLALLNWCKHNAKENHAEIMQAVRLPLMSLTELLNVVRPSGLLSPDAILDAIKVRSESRDMDLNYRGMLIPEENIATMKYGAQVVKGELKSALLDGDTQNYDLDHGFSRHPIDDDCRSGIEIKLGQPSIINHIRLLLWDRDSRSYSYFIEVSMDELDWIRVIDHSHYLCRSWQKLYFPARVCRYIRIVGTHNTVNKIFHIVAFECMFTNKAFTLEKGLIAPMENVATIADCASVIEGVSRSRNALLNGDTKNYDWDSGYTCHQLGSGAIVVQLAQPYMIGSIRLLLWDCDDRSYSYYVEVSTNQQQWTMVADRTKVSCKSWQSVTFERQPASFIRIVGTHNTANEVFHCVHFECPEQQSTQKEDSSEEPGTGDLSTPSQQLDPHAPRAPSASSLPPSPGPNLHSPNQQNQ”, the protein production entry is on record as “failed”.
Consider “MSNSIFHKIIKSVKGLKLKTDPNLPGAKQKTPLNIKRFYLLIILVIYTATSACIYFDWSAIRKLLLHVGKYKHLNVDEYSDMTLSPQYKRINGLYPLTLAVHFTTSVFCGFLYDHIGPKFTAIIGQLFNIICWILLSIDIKGVDTTLWGFIFLGLGADTAFIPVLTVSNLYPDASTFILTVIGAAASLSYAVPATLNLVLKYFPNLSFSYVCYGYIILILIPCLLTAAFLLPLKPFKALDYYLEKNNETTKHTNAEGRSRSSNNIYTNEEDEFHFKNNASGMVDKDSTENNMNTDEHNYYNNGNISSNDLENNIQTNNRNNNKNNNYNNNNNNNNIIKKNTKISDQSTVKKDKSIDSNKNILHDEEDFHKKSIFLFFKILISYPSVCVITYFILFNISTVFYGMVTDTYFSYDRSIINVINILMPLSSIPCVVFGRFINKYGASVIILTINTLSVLMHLCALIKFRFAGLCSAFLYMCVTSVYTSQIYCFIQNSFPSIVFGKLLGFASLCGGIFSLLCEKLYDLIIIKDSSSIDPTNISLLIVIAFIIMFLPLSILYVRKYERSIENFGEKDKLPMN”, for which the protein production entry is “failed”.
With “MSNSINLGRVAVIDIGKTNAKVVVIDTGSGEEIAAEKRTNPVLRDGPYPHYDVEMLWNFILAALQRFGHEPGFDAISITTHGASAALLDGTGDLAMPVLDYEHIYAEPVQQAYRGIRPDFAETGSPQLPAGLNLGAQIHFQKTNFPDDFARVRSIVTYPQYWAGRLTGVQATETTSLGCHTDLWNPRRKSFSSLVGRLGIEHLMAPVRSAFDVLGTIRPSLAQETGLSPDMPVYCGIHDSNASLLPHLLRREGDFSVVSTGTWVVNFAIGGKADALDPARDTLLNVDALGRPVPSSRFMGGREYEMLAQQFGAATPHDIEAALGGVIEKGMMLLPSVVSGSGPFPQSASRWIADSDATGAERHAAASLYLALMTEFCLSLVERRGPIVVEGPFAGNALYLKALAAFAATDVIAMEGSTGTSAGAALLTGIKPVAGRERHFTAEDIAGLTSYRTAWQNHLT”, the protein production result is “failed”.
Consider “MSNSQAGPGASVRRVLAVIPARGGSKGVPAKNLAPVGGVPLVVRAVRECLAARLVTDVVVSTDDQAIAAAAREAGAEVVLRPAAIAGDTATSEAAVLHAMDAHEALHGAAVDVVLLVQCTSPFLVREDVDGVAGAVVEDGADTAVTVAPFHGFVWRDGADEPGGADGGHGVNHDKAYRPRRQDRPQDLLETGAAYAMAAPGFRKHRHRFFGRTDLVRTDPARVLEIDDPHDLARARALAPHFDTARPGALPTAADIDAVVLDFDGTQTDDRVLIDTDGREFVSVHRGDGLGIAALRRSGLTMLILSTEVNPVVAARARKLKLPVLHGIDRKDLALKQWCEEQGIAPERVLYVGNDVNDLPCFALVGWPVAVASAHDAVRGAARAVTTVPGGEGAVREIAAWLLGPSLDALGPASETTPTLTQSKLEHHHHHH”, for which the protein production entry was “not failed”.
Take “MSNVAQYKDGTYIGKAQGKAAEVEVTVSIKEGKIANAEVLKHGDTEAMMLSATDQIVPELIEKQDINKVDAVTGATLSSQGVINAVKQALEQAKVTPLEHHHHHH”: the protein production entry is recorded as “not failed”.
The same measure for “MSNVCIVYSSTHHGNTEKVLNKIKEKFPETVLIKAGDFNPDDFNRYEAIGFASGIFYFKFAKPVDKLFEQALVGSVQKLFFIYTAGAVNAGFEKTLRKKTEQSGKICMGIFGCKGFDTFGPLKLIGGLNKNSPNEKDFKNAIDFFEKNIINALEHHHHHH”: “not failed”.
